Test results: patent publication US20160032014A1 (Amgen, published 2016)

Key:
[1] = target: T1, human PCSK9 (self-cleaved, mature, secreted PCSK9 comprising amino acids 31 to 692 of SEQ ID NO: 2) (human, UniProt Q8NBP7 31-692, biotinylated in the ELISAs); assay: ELISA pH 7.4, sup 1:625, expt 2
T1 construct: Limits 31-692 are stated for the immunogen; the assays only say human PCSK9; also called huPCSK9; rhu PCSK9

[2] = target: T1, human PCSK9 (self-cleaved, mature, …); assay: ELISA, supernatant on captured biotin-PCSK9, late primary screen
[3] = target: T1, human PCSK9 (self-cleaved, mature, …); assay: ELISA pH 7.4, sup 1:125, expt 2
[4] = target: T1, human PCSK9 (self-cleaved, mature, …); assay: ELISA pH 6, sup 1:625, expt 1
[5] = target: T1, human PCSK9 (self-cleaved, mature, …); assay: ELISA pH 6, sup 1:125, expt 2
[6] = target: T1, human PCSK9 (self-cleaved, mature, …); assay: ELISA pH 7.4, sup 1:125, expt 1
human D374Y PCSK9 [7] = target: T2, human D374Y PCSK9 (human, UniProt Q8NBP7 31-692, limits assumed, biotinylated in the blocking ELISA); assay: ELISA, blocking of biotin-D374Y PCSK9 binding to LDLR, expt. #2
T2 construct: also called D374Y PCSK9 mutant; biotinylated human D374Y PCSK9

[8] = target: T1, human PCSK9 (self-cleaved, mature, …); assay: ELISA pH 7.4, sup 1:625, expt 1
[9] = target: T1, human PCSK9 (self-cleaved, mature, …); assay: ELISA, sup 1:625, expt 1
[10] = target: T1, human PCSK9 (self-cleaved, mature, …); assay: ELISA, sup 1:125, expt 2
[11] = target: T1, human PCSK9 (self-cleaved, mature, …); assay: ELISA, sup 1:625, expt 2
[12] = target: T1, human PCSK9 (self-cleaved, mature, …); assay: ELISA, supernatant on captured biotin-PCSK9, early primary screen
[13] = target: T1, human PCSK9 (self-cleaved, mature, …); assay: ELISA, sup 1:125, expt 1
[14] = target: T1, human PCSK9 (self-cleaved, mature, …); assay: ELISA pH 6, sup 1:125, expt 1
[15] = target: T1, human PCSK9 (self-cleaved, mature, …); assay: ELISA pH 6, sup 1:625, expt 2
human D374Y PCSK9 [16] = target: T2, human D374Y PCSK9; assay: ELISA, blocking of biotin-D374Y PCSK9 binding to LDLR, expt. #1
[17] = target: T1, human PCSK9 (self-cleaved, mature, …); assay: solution equilibrium, BIAcore, pH 5.5
[18] = target: T1, human PCSK9 (self-cleaved, mature, …); assay: solution equilibrium, KinExA or BIAcore, pH 7.4
[19] = target: T1, human PCSK9 (self-cleaved, mature, …); assay: solution equilibrium

OD 450 nm [1] | OD 450 nm [2] | OD 450 nm [3] | OD 450 nm [4] | OD 450 nm [5] | OD 450 nm [6] | % Inhibition (human D374Y PCSK9 [7]) | OD 450 nm [8] | OD diff (pH 7.4 - pH 6) [9] | OD diff (pH 7.4 - pH 6) [10] | OD diff (pH 7.4 - pH 6) [11] | OD 450 nm [12] | OD diff (pH 7.4 - pH 6) [13] | OD 450 nm [14] | OD 450 nm [15] | % Inhibition (human D374Y PCSK9 [16]) | Kd [17] | Kd [18] | pH 5.5/7.4 KD ratio [19] | Binder
1.5 OD | 4.2 OD | 4.1 OD | 0.9 OD | 2.8 OD | 4.2 OD | 92% | 2.5 OD | 1.6 OD | 1.3 OD | 0.7 OD | 6 OD | 1.2 OD | 3 OD | 0.8 OD | 91% |  |  |  | 20D12 (antibody, human IgG2, lambda, V domains shown, tested as hybridoma supernatant) VH: QVQLQQWGAGLLKPSETLSLTCAVSGGSFRAYYWNWIRQPPGKGLEWIGEINHSGRTDYNPSLKSRVTISVDTSKNQFSLKLSSVTAADTAVYYCARGQLVPFDYWGQGTLVTVSS VL: not shown
0.5 OD | 4.3 OD | 2.6 OD | 0.5 OD | 1.7 OD | 2.1 OD | 93% | 0.8 OD | 0.3 OD | 0.9 OD | 0 OD | 6 OD | 0.8 OD | 1.3 OD | 0.5 OD | 94% |  |  |  | 25B5 (antibody, human IgG2, lambda, V domains shown, tested as hybridoma supernatant) VH: QIQLVQSGAEVKKPGASVKVSCKASGYTLTSYGISWVRQAPGQGLEWMGWISFYNGNTNYAQKVQGRVTMTTDTSTSTVYMELRSLRSDDTAVYFCARGYGMDVWGQGTTVTVSS VL: QSALTQPASVSGSPGQSITISCTGTSSDVGGYNSVSWYQQHPGKPPKLMIYEVSNRPSGISNRFSGSKSGNTASLTISGLQAEDEADYFCSSYTSTSMVFGGGTKLAVLR
 |  |  |  |  |  |  |  |  |  |  |  |  |  |  |  | 150 pM | 78 pM | 1.9 | SS-15005 (antibody, IgG2, V domains shown, also called 25G4) VH: EVQLLESGGGLVQPGGSLRLSCAASGFTFSSYAMNWVRQAPGKGLEWVSTISGSGGNTYYADSVKGRFTISRDNSKNTLYLQMNSLRAEDTAVYYCAKKFVLMVYAMLDYWGQGTLVTVSS VL: DIQMTQSPSSLSASVGDRVTITCRASQSISIYLNWYQQKPGKAPYLLIYAAASLQSGVPSRFSGSGSGTDFTLTISSLQPEDFATYYCQQSYSAPITFGQGTRLEIKR
